# Measured values taken from the RNAGym collection of RNA variant scans (doi:10.7554/elife.80360).
# B1: HDV Ribozyme (parent)
# chain: GGCCGGCAUGGUCCCAGCCUCCUCGCUGGCGCCGGCUGGGCAACAUUCCGAGGGGACCGUCCCCUCGGUAAUGGCGAAUGGGACCCA
# Variants of: B1
# Assay: self-cleavage, relative activity (ratio to wild type); higher = more cleavage; co-transcriptional
row,Variant,self-cleavage
1,A16G C63U,0.997
2,G17A U69G,0.906
3,G17A U69C,0.786
4,G17C C32A,0
5,A16G G80A,0.243
6,A16G G80C,0.249
7,G17A C58U,0.588
8,A16G U60G,0.554
9,A16G U60A,1.25
10,A16U C61U,1.04
11,A16U C61G,0.712
12,A16U G40U,0.964
13,G17C G59U,0.342
14,G17A G31U,0.102
15,G17A G31C,0.188
16,A16U A83C,0.575
17,G17A A78C,0.268
18,A16U C84G,1.09
19,A16U C84U,0.678
20,A16U G50U,0.889
21,A16U G50C,1.03
22,G17A C18G,0.095
23,G17C C48A,0.388
24,G17C C48G,0.252

row,Variant,self-cleavage
1,G17A G73C,0.0615
2,A16G C62G,0.369
3,A16G C62A,0.877
4,G17A C33G,0.0369
5,G17A C33A,0.0875
6,A16G U65C,1.26
7,G17C G67C,0.289
8,A16U G73U,0.237
9,G17A C85U,0.641
10,G17A C85G,0.814
11,A16G G38A,0.213
12,A16G G38C,0.142
13,G17C C22A,0
14,G17C C22G,0.208
15,A16U G29U,0.113
16,A16U G29C,0.104
17,A16U G29A,0.0378
18,G17A G81C,0.204
19,G17A G81U,0.182
20,A16U C41U,0.997
21,A16G U23A,1.11
22,A16G U23G,1.16
23,A16G U23C,1.14
24,G17A G52A,0.831

row,Variant,self-cleavage
1,G17A C41G,0.0997
2,G17C C84A,0.231
3,A16G U79C,1.08
4,A16G U79A,0.997
5,A16G U79G,0.598
6,A16U G52U,0.863
7,A16U G52A,0.7
8,G17A U60C,0.522
9,A16U G68A,1.09
10,A16U G68C,1.03
11,G17A G55C,0.742
12,A16U U47A,0.639
13,G17C G53A,0.281
14,G17C G53U,0.298
15,G17C G53C,0.178
16,A16G U47G,1.14
17,A16G U20A,0.138
18,A16G U20G,0.145
19,G17A A56G,0.59
20,G17A A56C,0.847
21,A16U C58A,1.09
22,A16U C58U,0.962
23,G17A C21A,0.0297
24,G17C A71C,0.246

row,Variant,self-cleavage
1,G17C G31U,0.0831
2,G17C G31A,0.0652
3,G17A C19U,0.119
4,A16G G59C,0.929
5,A16U C19G,0
6,A16U C19U,0.122
7,G17A A51U,0.884
8,A16U G80A,0.812
9,A16U C86A,1.03
10,G17A U72A,0.219
11,A16G G29C,0
12,G17A A87G,0.745
13,G17A A87C,0.716
14,G17C C26G,0.0852
15,G17C C21G,0.145
16,G17A G40A,0.655
17,G17C A78C,0.0755
18,G17C A78G,0.0536
19,G17C A78U,0.18
20,A16U U20G,0.0791
21,G17C C41U,0.0449
22,A16G C66G,0.743
23,A16G C66A,0.88
24,G17A G39A,0.095

row,Variant,self-cleavage
1,G17A G39U,0.197
2,A16U G67C,0.978
3,G17A G59U,0.852
4,A16U C26G,0.831
5,G17A C66G,0.652
6,G17A C62A,0.886
7,G17A C62G,0.633
8,A16G U27C,0.675
9,A16G U27G,0.594
10,A16U G81U,0.554
11,A16U G81C,0.342
12,G17A U27C,0.309
13,G17A U27A,0.609
14,G17A U27G,0.485
15,A16G G35U,0.375
16,A16G G35C,0.138
17,G17A C30G,0.631
18,A16G G54U,0.72
19,A16U,0.984
20,G17C C85U,0.156
21,G17C C85G,0.185
22,G17C C85A,0.388
23,G17C C44A,0
24,G17C C44G,0.0723

row,Variant,self-cleavage
1,A16U C66G,1.26
2,A16U C66A,0.831
3,G17A C86G,0.591
4,A16G U37A,0.115
5,A16G U37C,0.997
6,A16G U37G,0.119
7,G17A A70U,0.616
8,A16U C75U,0.189
9,A16U C75A,0.111
10,A16U A87U,0.862
11,A16U G54U,0.771
12,A16U G54A,0.795
13,A16U G54C,0.955
14,A16G G67C,0.849
15,G17A G29A,0.128
16,A16G G25C,0.166
17,A16U A56G,0.831
18,A16U A56C,0.906
19,A16G G76A,1.07
20,A16G C75U,0.178
21,A16G C75G,0.222
22,G17C G25C,0.0475
23,G17C G25A,0.131
24,A16G U69G,0.962

row,Variant,self-cleavage
1,A16G U69A,0.985
2,G17C G40U,0.196
3,G17C G40A,0.19
4,A16U C33A,0.0639
5,G17C C86U,0.237
6,A16U U27A,0.697
7,A16U U27C,0.587
8,A16U G53A,1.01
9,A16G G31U,0.375
10,A16G U46G,0.554
11,A16U G39C,0.185
12,G17A G76A,0.787
13,G17A G28A,0
14,A16G U72G,0.332
15,A16G U72A,0.499
16,A16U C32G,0.156
17,A16G G53C,1.11
18,A16G G53U,1.02
19,G17A C24A,0.089
20,G17A C24U,0.26
21,A16U G28U,0.222
22,A16U G28C,0
23,G17A A45U,0.696
